Results from patent publication US20070098706A1 (University of Texas, published 2007).
One block for each binder: values may come before it.

B1: GST-(SH3)+ (other)
chain: RGLQLQCRGAGGRPVLYQVVAQHSYSAQGPEDLGFRQGDTVDVLCEEPDVPLAVDQAWLEGHCDGRIGIFPKCFVVPAGPRMSGAPGRLPRSQQGDQP
notes: Cloned at the EcoRI site of pGEX-3X in frame with GST; the linker is not described; also called fusion protein of GST and the C-terminal NOXA1(SH3+) polypeptide; not shown: glutathione-S-transferase (GST) encoded by vector pGEX-3X
B3: human p47^phox (other, UniProt P14598 1-390, looked up)
chain: MGDTFIRHIALLGFEKRFVPSQHYVYMFLVKWQDLSEKVVYRRFTEIYEFHKTLKEMFPIEAGAINPENRIIPHLPAPKWFDGQRAAENRQGTLTEYCSTLMSLPTKISRCPHLLDFFKVRPDDLKLPTDNQTKKPETYLMPKDGKSTATDITGPIILQTYRAIANYEKTSGSEMALSTGDVVEVVEKSESGWWFCQMKAKRGWIPASFLEPLDSPDETEDPEPNYAGEPYVAIKAYTAVEGDEVSLLEGEAVEVIHKLLDGWWVIRKDDVTGYFPSMYLQKSGQDVSQAQRQIKRGAPPRRSSIRNAHSIHQRSRKRLSQDAYRRNSVRFLQQRRRQARPGPQSPGSPLEEERQTQRSKPQPAVPPRPSADLILNRCSESTKRKLASAV
modifications: labeled in vitro with [35S]-methionine/[35S]-cysteine
notes: no residue limits are printed

Tests used:
human p47^phox = target: B3; assay: GST pull-down of 35S-labelled p47phox with isolated SH3-containing polypeptides
Method: (§1) Binding interactions are carried out between GST, GST-NOXA1, GST-NOXA1_{SH3+)}, GST-(SH3wt) and GST-(SH3+) fusion proteins immobilized on GSH-Sepharose, and the in vitro synthesized [³⁵S]-labeled target proteins. Volumes of fusion protein bacterial lysates, previously determined to give equal loading of the GSH-Sepharose, are mixed for 5 min at room temperature with 250 μl of a 50% suspension of washed GSH-Sepharose in PBS (137 mM NaCl, 2.68 mM KCl, […] Na2HPO4, pH 7.3). The suspension is washed twice and resuspended to 500 μl in PBS with 10 mM DTT. Human NOX1, NOX2, p47^phox and MBP-NOXO1₍₂₈₈₋₃₇₀₎ are synthesized and labeled in vitro with [³⁵S]-methlionine/[³⁵S]-cysteine (Redivue Pro-mix L-[³⁵S] labeling mix, Amersham Biosciences, Inc. # AGQ0080) using the TNT® Coupled Reticulocyte Lysate System (Promega) and T7 RNA polymerase. A 24 μl aliquot of the labeling reaction is mixed with 476 μl of the resuspended immobilized GST fusion protein for 15 min at room temperature. The gel pellet is washed 4X with 500 μl of PBS/10 mM DTT/0.05% Triton X-100. […] The entire volume of the denatured samples is separated on 9% SDS-PAGE and analyzed by fluorography. A sample of the original binding gel is analyzed by denaturing SDS-PAGE and Coomassie staining to confirnm the loading of the GST proteins. […]

GST-NOXA1(SH3+) [1] = target: T1, GST-NOXA1(SH3+) (human, UniProt Q86UR1 1-476); assay: GST pull-down of 35S-labelled MBP-NOXO1(288-370), SDS-PAGE and fluorography
T1 construct: the vector-encoded linker is not described; Immobilised on GSH-Sepharose; not shown: glutathione-S-transferase (GST) encoded by vector pGEX-3X
T1 sequence: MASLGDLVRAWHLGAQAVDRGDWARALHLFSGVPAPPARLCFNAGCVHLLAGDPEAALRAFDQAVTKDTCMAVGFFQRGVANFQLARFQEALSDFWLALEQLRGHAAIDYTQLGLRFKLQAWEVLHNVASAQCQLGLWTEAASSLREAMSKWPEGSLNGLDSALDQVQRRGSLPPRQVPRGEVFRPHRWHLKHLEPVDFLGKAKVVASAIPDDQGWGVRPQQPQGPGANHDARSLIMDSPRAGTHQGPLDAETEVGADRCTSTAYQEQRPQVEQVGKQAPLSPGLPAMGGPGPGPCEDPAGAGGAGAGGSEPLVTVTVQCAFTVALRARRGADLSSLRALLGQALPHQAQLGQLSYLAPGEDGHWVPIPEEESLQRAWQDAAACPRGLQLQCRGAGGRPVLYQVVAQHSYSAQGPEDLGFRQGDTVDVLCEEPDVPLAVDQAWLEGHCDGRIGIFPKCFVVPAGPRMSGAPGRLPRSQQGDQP
Method: as §1

GST-(SH3)+ = target: B1; assay: GST pull-down of 35S-labelled MBP-NOXO1(288-370) with isolated SH3-containing polypeptides
Method: as §1

GST-NOXA1(SH3+) [2] = target: T1, GST-NOXA1(SH3+); assay: GST pull-down of 35S-labelled p47phox, SDS-PAGE and fluorography
Method: as §1

Binder: B1
binding result (human p47^phox): no binding

binding result (GST-NOXA1(SH3+) [1]): no binding | binding result (GST-(SH3)+): no binding
B2: MBP-NOXO1(288-370) (other, human, UniProt Q8NFA2 294-376, looked up, not shown: large carriers)
chain: EGLGALLSGTGFRGGDDPAGEARGFPEPSQATAPPPTVPTRPSPGAIQSRCCTVTRRALERRPRRQGRPRGCVDSVPHPTTEQ
modifications: labeled in vitro with [35S]-methionine/[35S]-cysteine
notes: range 294-376; Cloned at the SacI/XhoI sites of pET23bMBPH6 in frame with MBP; linker and any vector tag are not described; Made by in vitro coupled transcription/translation; also called NBP-NOXO1(288-370)

Binder: B3
binding result (GST-NOXA1(SH3+) [2]): no binding
